Results on 1 molecule are retold here after patent publication US20170260251A1 (ANSUN BIOPHARMA, published 2017).

One test deals with human thrombin (human, UniProt P00734 328-622). The experiment in a line: protease inhibition constant Ki, human enzyme.
The target in test [1] is human coagulation factor Xa (human, UniProt P00742 41-179; P00742 235-488, limits assumed). The experiment in a line: protease inhibition constant Ki, human enzyme.
A further test addresses human kallikrein (human, UniProt P03952 20-638, limits assumed). Briefly: protease inhibition constant Ki, human enzyme.
The target in a further test is human plasmin (human, UniProt P00747 97-810). Briefly: protease inhibition constant Ki, human enzyme.
The target of test [2] is T1, human coagulation factor VIIa (human, UniProt P08709 61-466).
T1 sequence (looked up): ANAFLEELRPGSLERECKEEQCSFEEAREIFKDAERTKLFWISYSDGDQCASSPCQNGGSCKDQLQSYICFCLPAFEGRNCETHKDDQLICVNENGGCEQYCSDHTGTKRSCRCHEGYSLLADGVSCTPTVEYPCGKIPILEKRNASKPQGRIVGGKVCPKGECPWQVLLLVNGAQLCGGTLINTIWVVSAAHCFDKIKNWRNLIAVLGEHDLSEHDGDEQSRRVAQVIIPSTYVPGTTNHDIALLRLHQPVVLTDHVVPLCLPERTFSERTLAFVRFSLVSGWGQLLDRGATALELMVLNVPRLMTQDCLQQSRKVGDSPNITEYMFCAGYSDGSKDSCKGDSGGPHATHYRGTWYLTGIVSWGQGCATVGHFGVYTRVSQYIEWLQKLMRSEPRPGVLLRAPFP
The experiment in a line: protease inhibition constant Ki, human enzyme.

Another test concerns the target T2, mouse thrombin (mouse, UniProt P19221 325-618).
T2 construct: also called Thrombin (mice)
The experiment in a line: protease inhibition constant Ki, mouse enzyme.

For a further test, the target named is T3, mouse kallikrein (mouse, UniProt P26262 20-638, limits assumed).
T3 construct: also called Kallikrein (mice)
The experiment in a line: protease inhibition constant Ki, mouse enzyme.

The next test deals with T4, mouse plasmin (mouse, UniProt P20918 98-812).
T4 construct: also called Plasmin (mice)
Briefly: protease inhibition constant Ki, mouse enzyme.

The target of test [3] is T5, mouse coagulation factor Xa (mouse, UniProt O88947 41-180; O88947 232-481, limits assumed).
T5 construct: also called Xa (mice)
Briefly: protease inhibition constant Ki, mouse enzyme.

The target of test [4] is T6, mouse coagulation factor IXa (mouse, UniProt P16294 47-192; P16294 237-471).
T6 construct: also called IXa (mice)
The experiment in a line: protease inhibition constant Ki, mouse enzyme.

Sequence of human plasmin (P00747 97-810 limits assumed): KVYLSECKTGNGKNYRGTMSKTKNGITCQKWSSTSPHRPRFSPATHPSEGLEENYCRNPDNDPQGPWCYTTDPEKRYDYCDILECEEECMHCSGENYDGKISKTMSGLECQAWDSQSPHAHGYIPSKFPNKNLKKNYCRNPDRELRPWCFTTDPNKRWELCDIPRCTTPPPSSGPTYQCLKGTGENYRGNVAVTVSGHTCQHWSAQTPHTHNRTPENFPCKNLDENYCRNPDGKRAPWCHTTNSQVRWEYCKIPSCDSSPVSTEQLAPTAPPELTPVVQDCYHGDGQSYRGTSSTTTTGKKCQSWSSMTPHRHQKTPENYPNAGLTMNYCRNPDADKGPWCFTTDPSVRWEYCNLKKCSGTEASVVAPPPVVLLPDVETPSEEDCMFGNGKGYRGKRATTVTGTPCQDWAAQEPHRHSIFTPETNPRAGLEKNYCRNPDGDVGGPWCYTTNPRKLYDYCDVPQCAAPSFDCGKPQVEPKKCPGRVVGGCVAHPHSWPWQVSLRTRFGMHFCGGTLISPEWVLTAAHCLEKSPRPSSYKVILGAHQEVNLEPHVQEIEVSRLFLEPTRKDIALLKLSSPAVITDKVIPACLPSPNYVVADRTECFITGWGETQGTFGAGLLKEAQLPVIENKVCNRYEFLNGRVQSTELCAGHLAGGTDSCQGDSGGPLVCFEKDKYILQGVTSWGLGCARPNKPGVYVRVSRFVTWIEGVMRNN
T3 sequence (P26262 20-638 limits assumed): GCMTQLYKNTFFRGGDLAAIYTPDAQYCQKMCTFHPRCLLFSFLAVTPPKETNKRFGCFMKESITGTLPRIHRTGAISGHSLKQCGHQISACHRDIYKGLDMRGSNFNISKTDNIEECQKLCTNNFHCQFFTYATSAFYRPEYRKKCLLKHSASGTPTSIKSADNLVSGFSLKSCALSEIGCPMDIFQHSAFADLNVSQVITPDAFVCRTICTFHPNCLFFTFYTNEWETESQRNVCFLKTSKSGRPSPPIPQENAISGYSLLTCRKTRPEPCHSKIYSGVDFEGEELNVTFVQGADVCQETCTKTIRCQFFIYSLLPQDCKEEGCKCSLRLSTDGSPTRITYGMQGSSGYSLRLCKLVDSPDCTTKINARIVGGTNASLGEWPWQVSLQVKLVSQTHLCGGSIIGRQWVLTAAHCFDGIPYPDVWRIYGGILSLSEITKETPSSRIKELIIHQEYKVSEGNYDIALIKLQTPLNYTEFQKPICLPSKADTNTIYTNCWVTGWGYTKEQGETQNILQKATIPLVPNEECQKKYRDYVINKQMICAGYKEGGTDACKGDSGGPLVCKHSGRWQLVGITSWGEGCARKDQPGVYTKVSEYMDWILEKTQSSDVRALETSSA
T6 sequence (P16294 47-192 limits assumed, chain 1 of 2): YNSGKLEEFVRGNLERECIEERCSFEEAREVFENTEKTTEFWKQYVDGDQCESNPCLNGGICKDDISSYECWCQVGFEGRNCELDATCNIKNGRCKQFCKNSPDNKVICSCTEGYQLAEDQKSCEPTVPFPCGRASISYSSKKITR
T6 sequence (P16294 237-471 limits assumed, chain 2 of 2): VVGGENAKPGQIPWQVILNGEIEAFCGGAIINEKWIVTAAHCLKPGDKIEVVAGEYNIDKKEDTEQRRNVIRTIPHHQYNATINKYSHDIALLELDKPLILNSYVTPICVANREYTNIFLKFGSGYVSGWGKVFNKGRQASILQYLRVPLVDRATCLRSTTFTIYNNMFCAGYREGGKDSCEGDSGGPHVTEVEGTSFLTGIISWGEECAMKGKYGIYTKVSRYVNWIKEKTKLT
T4 sequence (P20918 98-812 limits assumed): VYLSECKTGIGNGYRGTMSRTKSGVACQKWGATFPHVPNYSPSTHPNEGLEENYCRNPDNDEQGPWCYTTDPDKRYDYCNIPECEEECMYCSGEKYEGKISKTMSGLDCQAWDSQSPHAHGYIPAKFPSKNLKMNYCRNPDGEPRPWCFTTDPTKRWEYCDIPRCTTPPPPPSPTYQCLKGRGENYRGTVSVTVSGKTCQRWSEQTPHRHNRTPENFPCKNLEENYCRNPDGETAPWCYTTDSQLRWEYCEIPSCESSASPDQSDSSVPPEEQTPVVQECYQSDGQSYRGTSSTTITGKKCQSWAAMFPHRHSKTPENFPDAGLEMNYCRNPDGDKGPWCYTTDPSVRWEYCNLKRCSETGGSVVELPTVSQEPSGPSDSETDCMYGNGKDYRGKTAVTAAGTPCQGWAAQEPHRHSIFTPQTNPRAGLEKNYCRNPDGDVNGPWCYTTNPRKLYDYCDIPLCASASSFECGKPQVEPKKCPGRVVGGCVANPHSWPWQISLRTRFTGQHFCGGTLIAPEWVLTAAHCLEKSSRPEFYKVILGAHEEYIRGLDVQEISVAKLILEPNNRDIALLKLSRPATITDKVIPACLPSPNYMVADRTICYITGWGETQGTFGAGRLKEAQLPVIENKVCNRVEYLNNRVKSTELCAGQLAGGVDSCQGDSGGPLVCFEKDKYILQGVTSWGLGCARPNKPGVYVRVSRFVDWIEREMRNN
Sequence of human kallikrein (P03952 20-638 limits assumed): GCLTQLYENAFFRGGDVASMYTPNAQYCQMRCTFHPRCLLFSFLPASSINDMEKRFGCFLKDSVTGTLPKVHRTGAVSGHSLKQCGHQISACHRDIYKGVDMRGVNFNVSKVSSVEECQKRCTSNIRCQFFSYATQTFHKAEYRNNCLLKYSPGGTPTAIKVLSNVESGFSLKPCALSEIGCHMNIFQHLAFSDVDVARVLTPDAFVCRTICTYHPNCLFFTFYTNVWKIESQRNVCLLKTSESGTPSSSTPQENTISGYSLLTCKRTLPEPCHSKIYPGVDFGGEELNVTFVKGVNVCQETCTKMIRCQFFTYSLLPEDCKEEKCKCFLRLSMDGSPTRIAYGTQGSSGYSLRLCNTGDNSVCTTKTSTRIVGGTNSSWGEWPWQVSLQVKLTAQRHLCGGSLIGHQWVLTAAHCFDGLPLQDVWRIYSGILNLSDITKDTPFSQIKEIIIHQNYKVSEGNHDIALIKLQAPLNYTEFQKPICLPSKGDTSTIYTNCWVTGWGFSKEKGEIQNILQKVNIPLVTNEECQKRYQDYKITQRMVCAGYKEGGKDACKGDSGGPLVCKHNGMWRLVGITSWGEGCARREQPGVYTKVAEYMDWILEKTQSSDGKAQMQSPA
T5 sequence (O88947 41-180 limits assumed, chain 1 of 2): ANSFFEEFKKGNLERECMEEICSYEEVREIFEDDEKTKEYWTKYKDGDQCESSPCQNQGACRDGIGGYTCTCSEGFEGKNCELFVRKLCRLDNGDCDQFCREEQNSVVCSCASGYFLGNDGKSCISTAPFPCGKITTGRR
T5 sequence (O88947 232-481 limits assumed, chain 2 of 2): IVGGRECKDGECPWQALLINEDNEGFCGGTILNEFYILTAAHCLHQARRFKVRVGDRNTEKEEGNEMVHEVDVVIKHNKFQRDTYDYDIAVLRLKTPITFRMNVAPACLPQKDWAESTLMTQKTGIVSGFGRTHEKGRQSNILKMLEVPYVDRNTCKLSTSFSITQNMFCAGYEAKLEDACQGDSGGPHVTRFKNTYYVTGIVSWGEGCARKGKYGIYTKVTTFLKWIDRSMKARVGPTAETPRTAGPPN
Sequence of human coagulation factor Xa (P00742 41-179 limits assumed, chain 1 of 2): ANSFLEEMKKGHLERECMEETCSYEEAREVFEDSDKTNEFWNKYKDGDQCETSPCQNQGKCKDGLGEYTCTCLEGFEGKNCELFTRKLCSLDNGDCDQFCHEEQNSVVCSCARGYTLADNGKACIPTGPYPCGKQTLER
Sequence of human coagulation factor Xa (P00742 235-488 limits assumed, chain 2 of 2): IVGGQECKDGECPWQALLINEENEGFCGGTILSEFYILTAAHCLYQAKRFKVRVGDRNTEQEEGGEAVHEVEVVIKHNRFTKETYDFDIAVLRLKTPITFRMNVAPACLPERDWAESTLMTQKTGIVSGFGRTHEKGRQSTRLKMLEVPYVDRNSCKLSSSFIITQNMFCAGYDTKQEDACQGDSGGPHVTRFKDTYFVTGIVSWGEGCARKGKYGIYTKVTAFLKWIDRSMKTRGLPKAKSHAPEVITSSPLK

B1: Ecotin variant NB141 (M84R/S82H) (other)
chain: AESVQPLEKIAPYPQAEKGMKRQVIQLTPQEDESTLKVELLIGQTLEVDCNLHRLGGKLENKTLEGWGYDYYVFDKVSSPVHTRMACPDGKKEKKFVTAYLGDAGMLRYNSKLPIVVYTPDNVDVKYRVWKAEEKIDNAVVR
The Ki is a measure of affinity in units of concentration, obtained from inhibition or displacement. Lower therefore signals a stronger hold on the target. Turning to B1, the inhibitory constant (Ki) in the test with human thrombin is 1600 pM; in test [1], 200 pM; with human kallikrein, 70 pM; with human plasmin it was 18700 pM; in test [2], 200 pM; in the test with mouse thrombin, 11600 pM. In addition, the Ki is 200 pM with mouse kallikrein, 1200 pM with mouse plasmin, 200 pM in test [3] and 600 pM in test [4].
